This test has as its target T1, GST-M3-protein (recombinant streptococcal M-protein type 3) (S. pyogenes).
T1 construct: M-protein type 3 (M3-protein) of Streptococcus pyogenes; emm3 amplified from chromosomal DNA of the M3 strain with primers M3-1 (BamHI) and M3-3 (SalI); The GST tag is named on the protein for electron microscopy and the pull-down; also called M3-GST; GST-tagged M-protein type M3; source: E. coli, pGEX6P-1, purified under native conditions; not shown: GST, N-terminal, kept
The experiment in a line: SPR; BIAcore 2000, CIV or CB3 immobilised on CM5 chip by amine coupling, M3-protein injected at 6.25-50 µg/ml, 10 mM HEPES, 100 mM NaCl, pH 7.4; apparent dissociation constants. Particulars: both partners purified. On the technique in general: SPR reads the build-up and loss of mass on a sensor chip optically.

B1: Cyanogen bromide fragment 3 (CB3) of collagen type IV (domain or fragment)
chain 1: PGVGEKGEPGKPGPRGKPGKDGDKGEKGSPGFPGEPGYPGLIGRQGPQGEKGEAGPPGPPGIVIGTGPLGEKGERGYPGTPGPRGEPGPKGFPGLPGQPGPPGLPVPGQAGAPGFPGERGEKGDRGFPGTSLPGPSGRDGLPGPPGSPGPPGQPGYTNGIVECQPGPPGDQGPPGIPGQPGFIGEIGEKGQKGESCLICDIDGYRGPPGPQGPPGEIGFPGQPGAKGDRGLPGRDGVAGVPGPQGTPGLIGQPGAKGEPGEFYFDLRLKGDKGDPGFPGQPGM
chain 2: GFPGLRGYPGLSGEKGSPGQKGSRGLDGYQGPDGPRGPKGEAGDPGPPGLPAYSPHPSLAKGARGDPGFPGAQGEPGSQGEPGDPGLPGPPGLSIGDGDQRRGLPGEM
chain 3: GPKGFIGDPGIPALYGGPPGPDGKRGPPGPPGLPGPPGPDGFLFGLKGAKGRAGFPGLPGSPGARGPKGWKGDAGECRCTEGDEAIKGLPGLPGPKGFAGINGEPGRKGDRGDPGQHGLPGFPGLKGVPGNIGAPGPKGAKGDSRTITTKGERGQPGVPGVPGM
modifications: 125I (chloramine T method) in the pull-down, bacterial binding and overlay assays | 125I (chloramine T method) in the pull-down, bacterial binding and overlay assays
B1: the Kd was 60 nM.
